Measured values: patent US20050027104A1

Legend:
[1] = biological target: One of the two myelomas (purified IgD(κ) or IgD(λ); which one is not stated); assay: dot blot, purified MID in dilutions on membrane, IgD myeloma protein as probe
[2] = biological target: surface-expressed B cell receptor (BCR) IgD on human CD19+ peripheral blood lymphocytes (human) (UniProt P01880); assay: flow cytometry, MID-FITC on PBLs incubated with the pre-immune serum (no blocking)
[3] = biological target: surface-expressed B cell receptor (BCR) IgD on human CD19+ peripheral blood lymphocytes (human) (UniProt P01880); assay: flow cytometry, MID-FITC on PBLs preincubated with rabbit anti-human IgD immunoglobulin fraction (competitor)
[4] = biological target: human IgD (probe or solid phase; preparation not specified at the place) (human) (UniProt P01880); assay: SDS-PAGE and Western blot with IgD after 60 C treatment, densitometry, 6 experiments; reference: monomeric MID962-1200

Sequence of UniProt P01880 (P01880 whole entry): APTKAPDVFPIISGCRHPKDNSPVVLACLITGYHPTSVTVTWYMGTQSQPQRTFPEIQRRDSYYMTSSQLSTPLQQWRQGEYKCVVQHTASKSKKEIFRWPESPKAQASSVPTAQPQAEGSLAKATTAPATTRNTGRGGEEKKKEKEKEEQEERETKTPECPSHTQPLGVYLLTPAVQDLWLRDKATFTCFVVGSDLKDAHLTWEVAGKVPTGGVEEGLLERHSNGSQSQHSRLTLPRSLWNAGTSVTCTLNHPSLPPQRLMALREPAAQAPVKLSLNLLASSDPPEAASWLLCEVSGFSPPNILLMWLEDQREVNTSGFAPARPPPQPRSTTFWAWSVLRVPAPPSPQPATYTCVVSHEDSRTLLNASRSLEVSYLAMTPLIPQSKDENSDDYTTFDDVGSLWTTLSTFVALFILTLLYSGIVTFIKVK

Substance | least amount of MID detected on the membrane [1] [µg] | Mean fluorescence intensity (arbitrary units) [2] | Mean fluorescence intensity (arbitrary units) [3] | fold more efficient binding to IgD than the monomeric form [4] [fold]
MID, IgD-binding surface exposed protein purified from Moraxella catarrhalis strain Bc5 (native full length MID1-2139) | 0.001 | 79.2 | 14.6 | 
MID962-1200 (F2), tetrameric form |  |  |  | 23
